Molecular target: T1, CCND1 (G1/S-specific cyclin-D1) peptide on HLA-DPA1*01:03 / HLA-DPB1*04:01 (human)
T1 peptide: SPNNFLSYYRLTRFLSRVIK
Assay: multimer staining

B1: 03-CCND1219-238 (TCR, V domains shown)
Valpha: KDQVFQPSTVASSEGAVVEIFCNHSVSNAYNFFWYLHFPGCAPRLLVKGSKPSQQGRYNMTYERFSSSLLILQVREADAAVYYCAVCTLYNFNKFYFGSGTKLNVKP
Vbeta: GVTQTPKFQVLKTGQSMTLQCAQDMNHEYMSWYRQDPGMGLRLIHYSVGAGITDQGEVPNGYNVSRSTTEDFPLRLLSAAPSQTSVYFCASLTDNNEQFFGPGTRLTVL
binding result: recognises
